PMC8558179, “The C-terminal peptide of CCL21 drastically augments CCL21 activity through the dendritic cell lymph node homing receptor CCR7 by interaction with the receptor N-terminus” (Cellular and Molecular Life Sciences: CMLS, 2021)
Entries after “also recorded” stand apart in the source; their conditions may differ. Each block holds one molecule with its values, some of them ahead of it.

Key:
CCR7-N (CCR7 N36/292A) = assay: Gαi signaling, BRET cAMP assay, CCR7 lacking N-glycosylation sites; format: cell-based, human; settings: CCL21 alone or CCL21 + 10 µM TP71-111, CHO cells, n = 3
Description: For cAMP assays, adherent CHO cells were transfected using lipofectamine while suspension cells were transfected using the FectoPro method. Cells were seeded in a 6-well plate, either 500,000 (adherent cells) or 200,000 (suspension cells) cells/well. The next day the cells were transiently transfected with vectors encoding the human CCR7 and CAMYEL sensor (cAMP sensor using YFP-Epac-RLuc) in a 1:5 ratio using lipofectamine (6 µl/well) or FectoPro (4 µl/well). Lipofectamine transfections were terminated by changing to 2 ml fresh cultivation medium after 5 h, while Fectopro transfection was terminated after 3 h by adding 2.5 ml fresh cultivation medium and 2 µl FectoPro Boost reagent per well. The cells were incubated under standard cultivation conditions overnight. […] Emission signal from Rluc and eYFP was measured using the Envision machine at 530 and 480 nm and the BRET signal determined as the ratio between (eYFP/Rluc).
Supplementary file 18_2021_3930_MOESM4_ESM.png: Supplementary file4 C21TP boosting ability is not dependent on N-glycosylation sites. […] Signaling was measured in CHO cells quantified using the BRET based cAMP assay. […] Statistical significance was calculated using two-way ANOVA with Tukey’s correction for multiple test. *P<0.05, **P <0.01, ***P<0.001 (PNG 328 KB)

[1] = test system: human moDCs naturally expressing CCR7; assay: 3D chemotaxis, time-lapse recording of human moDCs in Collagen I (chemotactic index); format: cell-based
Description: Buffy coats were obtained from Rigshospitalet Copenhagen, as anonymous material, with written informed consent from the donors. The local ethics committee at Faculty of Health and Medical Sciences at the University of Copenhagen (Research Ethics Committee for Sund and Science, University of Copenhagen) found the project exempt from approval. DCs were prepared from human peripheral blood mononuclear cells (PBMC) isolated from buffy coats by centrifugation on a Lymphoprep gradient as previously described. Briefly, monocytes were isolated by plastic adherence of PBMC. Adhered monocytes were subsequently cultured and differentiated into immature DCs by incubation with IL-4 (250 U/ml) and GM-CSF (1000 U/ml) for 6 days, followed by activation into mature DCs by incubation with IL-6 (1000 U/ml), IL-1β (1000 U/ml), TNF-α (1000 U/ml), and PGE2 (1 µg/ml) for an additional 2 days in the same medium.
(§1) Human DCs were cultured in X-vivo 15 medium with 2% human AB serum and glutamine. CHO-K1 pgsB-618 ATCC® CRL2241™ [24] and CHO-K1 cells were grown in RPMI with 10% FBS and Penicillin/Streptomycin. HS^−/− (CHO EXTL 2/3 −/−), CS^−/− (CSGALNACT 1/2^−/− CHSY1^−/−), 5xKO (GalNAc-T1, 2, 4, 7 and 10 −/−) and WT CHO suspension cells were grown in suspension in 1:1 of EX-Cell CD CHO fusion media and Balanced CD CHO growth A medium supplemented with 2% glutamine and Penicillin/Streptomycin. Cells were kept in a humidified incubator at 37 °C, 5% CO2.
Chemotaxis assays were conducted as previously described. Briefly, mature human moDCs were left to acclimatize in medium for 30 min at room temperature (RT) upon defrosting, before assay start. DCs were seeded in Bovine Collagen I mixture prepared by mixing 10 µl Na2HCO3 (7.5%), 20 µl MEM (10×), 150 µl PureCol and 90 µl DCs dissolved in X-vivo 15 medium (2 × 10^6 cells/ml). After incubation for 45 min in a humidified incubator at 37 °C (5% CO2), the source and sink reservoirs were filled according to the manufacturer’s instructions and chemotaxis was tracked in a time-lapse microscope with a humidified temperature controlled stage incubator for 12 h at a 2 min interval. Cell migration (approximately 20–40 cells per viewing field) was tracked using a commercial tracking program (Autozell) and subsequently analyzed to get a population-based chemotactic index (CI) value (MATLAB). CI is a measure of net translocation distance to the source relative to total distance traveled and was thus calculated as the ratio of the distance traveled in the direction of the gradient over the total distance traveled and therefore is a conservative measure of the directedness of cell migration.

human CCR7 [2] = target: T1, human CCR7 (Homo sapiens, UniProt P32248); assay: β-arrestin recruitment, BRET-based assay at CCR7; format: cell-based
T1 construct: CCR7 contains a 24-residue long signal peptide cleaved of from the mature protein; expressed in transfected cells; host or cells: CHO cells (CHO-K1, CHO suspension WT, GAG-deficient and 5xKO GalNAc-T knockout lines), transient transfection
T1 sequence (P32248 25-378): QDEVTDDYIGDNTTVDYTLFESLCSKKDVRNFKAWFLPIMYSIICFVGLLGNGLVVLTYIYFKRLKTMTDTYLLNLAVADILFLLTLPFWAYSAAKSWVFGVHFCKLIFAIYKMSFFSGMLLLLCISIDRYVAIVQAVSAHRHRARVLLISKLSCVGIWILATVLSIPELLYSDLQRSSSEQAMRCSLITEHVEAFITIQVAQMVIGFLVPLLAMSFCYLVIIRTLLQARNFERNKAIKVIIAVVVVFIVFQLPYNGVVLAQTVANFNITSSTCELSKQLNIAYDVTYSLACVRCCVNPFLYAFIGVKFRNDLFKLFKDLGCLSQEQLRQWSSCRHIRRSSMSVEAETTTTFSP
Description: (§2) For cAMP assays, adherent CHO cells were transfected using lipofectamine while suspension cells were transfected using the FectoPro method. Cells were seeded in a 6-well plate, either 500,000 (adherent cells) or 200,000 (suspension cells) cells/well. The next day the cells were transiently transfected with vectors encoding the human CCR7 and CAMYEL sensor (cAMP sensor using YFP-Epac-RLuc) in a 1:5 ratio using lipofectamine (6 µl/well) or FectoPro (4 µl/well). Lipofectamine transfections were terminated by changing to 2 ml fresh cultivation medium after 5 h, while Fectopro transfection was terminated after 3 h by adding 2.5 ml fresh cultivation medium and 2 µl FectoPro Boost reagent per well. The cells were incubated under standard cultivation conditions overnight. For β-arrestin recruitment assays, cells were transfected with CCR7 and vectors expressing a Renilla luciferase arrestin3 fusion protein and membrane-SH3-citrine protein. The cells were then resuspended in PBS w/glucose and seeded in 96-well white iso plates (~ 25,000 cells/well). Coelenterazine (bioluminescence substrate) was added to a final conc. of 5 µM. After 10 min, cells were stimulated with varying ligand concentrations for a total of 40 min. Forskolin was added to each well 5 min after ligand addition to reach a final conc. of 5 µM. The plates were kept in the dark at all times. Emission signal from Rluc and eYFP was measured using the Envision machine at 530 and 480 nm and the BRET signal determined as the ratio between (eYFP/Rluc).

human CCR7 [3] = target: T1, human CCR7; assay: Gαi signaling, BRET-based cAMP (CAMYEL) assay at CCR7 in CHO cells; format: cell-based; settings: for effect of C21TP on CCL21^Tailless activity (Gαi signaling): CCL21^Tailless (CCL21 1–79) + 10 µM TP71-111, n = 4
Description: as §1, §2

- effect of C21TP on CCL21^Tailless β-arrestin recruitment (human CCR7 [2]; CCL21^Tailless (CCL21 1–79) + 10 µM TP71-111, n = 4): small but significant decrease
- fold reduction of C21TP boosting effect on CCL21 signaling in 5xKO vs WT (human CCR7 [3]; CCL21 + 10 µM TP71-111, CHO 5xKO vs WT): 25 fold
- effect of C21TP on CCL21^Tailless activity (Gαi signaling) (human CCR7 [3]): not improved
- effect of C21TP on CCL21^Tailless activity (Gαi signaling) (human CCR7 [3]; listed as C21TP): did not affect CCL21^Tailless potency
- fold boost of CCL21 signaling activity via CCR7 (human CCR7 [3]; in the presence of C21TP): ~ 100 fold
Molecule: TP71-111: free CCL21 C-terminal peptide, residues 71–111 (41 amino acids, positively charged) (PSPQKPAQGCRKDRGASKTGKKGKGSKGCKRTERSQTPKGP; UniProt O00585 94-134, looked up, fragment)
- effect of removing extracellular N-glycosylation sites on signaling or boosting (CCR7-N) (CCR7-N (CCR7 N36/292A)): no effect
- increase of CCL19-induced DC chemotaxis ([1]; 10 nM CCL19 + 10 µM TP71-111, human moDCs, n = 3–6): significantly increased in the presence of 10 µM C21TP (TP71-111), by approximately twofold
- fold boost of CCL21-induced DC chemotaxis (immune cell recruiting activity) ([1]; 10 nM CCL21, highest C21TP concentration 10 µM (0.1–10 µM tested), human moDCs, 12 h tracking, 37 °C, n = 3–11): up to 25 fold
- boosting of CCL21-induced DC chemotaxis ([1]; 10 nM CCL21, peptide 10 µM (0.1–10 µM in the dose series), human moDCs): boosted significantly by the C21TP in a dose-dependent manner
- DC chemotaxis by C21TP alone ([1]; C21TP without chemokine, data not shown): did not induce DC chemotaxis
- boosting of CCL21-induced CCR7 signaling in GAG KO cells (human CCR7 [3]; CHO GAG KO (pgsB 618) vs WT, 10 µM TP71-111, n = 3): tendency that boosting by C21TP (TP71-111) was increased
- boosting of CCL21-induced CCR7 signaling in GAG-deficient cells (human CCR7 [3]; CHO HS−/−, CS−/− and GAG KO (pgsB 618) cells, 10 µM TP71-111, n = 3): In none of the GAG-deficient cells did we measure any decrease
- boosting of CCL19-induced CCR7 signaling in GAG-deficient cells (human CCR7 [3]; CHO HS−/−, CS−/−, GAG KO cells, 10 µM TP71-111, n = 3, listed as C21TP): similarly unaffected by the lack of GAGs; also recorded: independent of cell GAG status

- pEC50, β-arrestin recruitment, chemokine alone (human CCR7 [2]; no peptide, n = 4): undetectable
- pEC50, Gαi signaling, chemokine alone (human CCR7 [3]; no peptide, CHO cells, forskolin 5 µM, n = 4): 6.46
B1: CCL21: full-length chemokine (residues 1–111), CCR7 ligand, from R&D Systems (protein, UniProt O00585 24-134, looked up)
C-C motif chemokine 21: SDGGAQDCCLKYSQRKIPAKVVRSYRKQEPSLGCSIPAILFLPRKRSQAELCADPKELWVQQLMQHLDKTPSPQKPAQGCRKDRGASKTGKKGKGSKGCKRTERSQTPKGP
- effect of removing extracellular N-glycosylation sites on signaling or boosting (CCR7-N) (CCR7-N (CCR7 N36/292A)): no effect
- chemotaxis towards chemokine alone ([1]; 10 nM chemokine, no peptide, human moDCs): very weak chemotactic cue
